Target: HLA class II molecules of healthy donors carrying different HLA DR alleles
Assay: cell-based or functional assay

B1: IGFBP3 169-181 (peptide)
peptide: HSKIIIIKKGHAK
IFNγ producing CD4-positive T-cells, donor 1, after an additional round of stimulation: 0.09 to 0.13% | IFNγ producing CD4-positive T-cells, donor 1, after the third stimulation: 0.05 to 0.1% | maximal frequency of IFNγ producing CD4^+T-cells, donor 2: 0.05% | maximal frequency of IFNγ producing CD4^+T-cells, donor 3: 0.07%

Reference: US20160115212A1
